Data as given in article PMC4134300, “Biochemical Characterization of Two Thermostable Xylanolytic Enzymes Encoded by a Gene Cluster of Caldicellulosiruptor owensensis” (PLoS ONE, 2014).

Substrate: O=[N+]([O-])c1ccc(O[C@@H]2OC[C@@H](O)[C@H](O)[C@H]2O)cc1
Experiment: purified protein
Type: biochemical, Caldicellulosiruptor owensensis
Details: 50 mM sodium citrate, 150 mM NaCl, pH 5.0, 75 °C, 0.05 to 2.4 mM pNPX

B1: Coxyl A (Caldicellulosiruptor owensensis OL) (protein)
chain: MKIELYPEKTSGKINKFWTKCVGSCHAATALREDWRRQLRKCRQELGFEYLRCHGWLNDDMSVCFRNEDGKLWFSFFNIDTIIDFLLDIGMKPFIELSFMPEALASGTKTVFHYKGNITPPKSYEEWGQLVEELARHLVKRYGKNEVKEWFFEVWNEPNLKDFFWAGTMEEYFELYKHAAFAIKKVDPDLKVGGPASAIDAWIPELKEFCEKNNVPIDFISTHQYPTDLAFSTSSNMEEAMAKAKRGELADRVKKAIEEASPLPVYYTEWNNSPSPRDPYHDIPYDAAFIVKTIIDIVDLPLGCYSYWTFTDIFEECGQSSLPFHGGFGLLNIHGIPKPSYRAFQILDKLNGEKINAEAEDISPTIDFIATKNNNEIVLIISNHNVPLSPIENENILVTVNGLKGCKEISIERIDEYNANPKRKWVEMGSPEYLNKDQIEELIEASKPKKEVVSWRITGDNQLAFELNILPHSVLGVTIKTE
notes: His-tagged in pET-28b(+), E. coli BL21(DE3); homodimer
Km: 1600 ± 100 µM | Vmax: 3930 µmol/min/mg | kcat: 3630 ± 122 s⁻¹
